Earlier results on one substance are cited in paper PMC8920573.

This data set addresses SARS-CoV main protease main protease (Severe acute respiratory syndrome coronavirus) (UniProt P0C6X7).

Broadly, the Kd is the free concentration of one partner at which half of the binding sites on the other are occupied at equilibrium, for simple one-to-one binding. In the case of “SARS-CoV main protease main protease (from UniProt P0C6X7)”, the Kd was 2500 nM.
